Measured values as given in the supplement of paper PMC10567573.
± gives the standard deviation.

Test: protein stability index of a GFP-peptide fusion (GPS, HEK-293T) (PSI 1-6); higher = more stable
Conditions: c terminus: a fixed tail appended
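Also: 24-mer peptide tiles fused after GFP, lentivirally expressed, FACS-sorted into six equal bins by GFP/DsRed ratio, decoded by Illumina sequencing, PSI is the read-weighted mean bin number.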

Sequence | protein stability index (treatment: DMSO) | protein stability index (treatment: MLN4924 1 uM, 8 h)
STNLGVNQAGFTLHSAIYAARPDV [ADD1] | 3.02 ± 0.18 | 3.08 ± 0.35
PRGSHSSALERLETKLHLLRQEMV [LURAP1L] | 2.53 ± 0.33 | 2.69 ± 0.27
SSEVGPFVSKIRAVINDIANLPVP [AUH] | 2.64 ± 0.25 | 2.62 ± 0.42
SQMPPPAGGTSDDPEPSGPHLPRV [SCNN1D] | 5.23 ± 0.31 | 5.43 ± 0.12
SVNTHDYAKVKEFIVDILQFLDIG [MATN2] | 2.23 ± 0.35 | 2.05 ± 0.32
MEDKEMTGPQLPESLEDVAMYISQ [ZNF263] | 4.73 ± 0.23 | 4.78 ± 0.2
TECEGDIQKNYECANFGDQGITMG [LOXL2] | 4.94 ± 0.11 | 5.04 ± 0.19
IFFDDLDSPSKEEVFRFVQSCARA [CPOX] | 2.45 ± 0.38 | 2.69 ± 0.65
TSTSSSITSSIPDTERLDDFHLSI [DVL3] | 3.84 ± 0.27 | 3.96 ± 0.23
PWTKEEDQKVIELVKKYGTKQWTL [MYBL2] | 2.61 ± 0.24 | 2.72 ± 0.16
EETTSQDWGTPRELTFSYIAFDGV [RTN2] | 2.65 ± 0.15 | 2.8 ± 0.61
TLMEEVLLLGLKDREGYTSFWNDC [GOLPH3] | 2.71 ± 0.58 | 2.72 ± 0.69
YQQQHEQQKKDLEILHQQNIHQLQ [SASS6] | 4.47 ± 0.11 | 4.6 ± 0.19
PSVPPTIKEEENSEEELAAATTSK [MYBL2] | 5.52 ± 0.53 | 5.56 ± 0.4
HIKLHSGEKPFKCHLCNYACRRRD [IKZF1] | 2.55 ± 0.23 | 2.93 ± 0.61
EALRALQEGLWLDRGTRVVFIDFS [PKD2L1] | 2.3 ± 0.72 | 2.34 ± 0.35
LDFKDLLESEDWEEDNWDPELMEH [TEX19] | 4.86 ± 0.091 | 4.94 ± 0.26

Sequence | protein stability index (treatment: DMSO) | protein stability index (treatment: MLN4924 1 uM, 8 h)
ISNVCEEYIVKKLSRQEFLGMVGL [SLC35F2] | 2.32 ± 0.17 | 2.35 ± 0.13
LVVDYIDEGRLVLEFSLLSYAFGK [SOAT1] | 3.29 ± 0.8 | 3.17 ± 0.48
WGCDLGVVTRVVTGVYPRCLHASQ [BRF1] | 2.89 ± 0.8 | 2.3 ± 0.46
GDRLQFNQLSQAELDELASKAPVL [EFHC1] | 4.25 ± 0.42 | 4.72 ± 0.36
STSFRVYIMAFDIKSEDMLKILKP [FBXO33] | 2.14 ± 0.59 | 3.02 ± 0.51
YQSFVQFLQYYYQSGCLYRLRALG [TMEM120A] | 2.67 ± 0.88 | 3.22 ± 0.57
HRIWMYNCHIGGSFSEETEKKFEH [LOXL2] | 2.42 ± 0.21 | 2.62 ± 0.34
DDMPIGRNVLELNDVRQSANYTCV [PTPRD] | 3.72 ± 0.28 | 3.77 ± 0.44
TFVSTCQAIDATVAAELLNHLLES [HES6] | 2.48 ± 0.35 | 2.48 ± 0.32
MPSPCSCMSFNPETRRLSIGLDNG [WDFY2] | 3.19 ± 0.13 | 3.29 ± 0.25
HFWQLFNALTLFNLAQDPQCKEWQ [TMEM120A] | 3.17 ± 0.61 | 3.72 ± 0.76
NEYVAIKLEPIKSRAPQLHLEYRF [CSNK1G1] | 2.31 ± 0.3 | 2.53 ± 0.36
AARALDKNKIPYKGFIPEDLEAFI [FEM1A] | 2.96 ± 0.29 | 3.42 ± 0.41
FTRPNEKGEYEVAEGIGSTVFRAI [BTBD10] | 3.18 ± 0.42 | 3.46 ± 0.38
TIFSASNYYEVGSNRGAYVKLGPA [PPEF2] | 2.39 ± 0.5 | 2.66 ± 0.3
EAYTKICDPGLTAFEPEALGNLVE [CAMK2D] | 3.91 ± 0.25 | 3.62 ± 0.27
